Test results: article PMC8932645
Blank lines part the entries; values can stand above or below the molecule they belong to. No end group written: not given here. *: point of attachment. Palmitoyl = CCCCCCCCCCCCCCCC(=O)*

How the values were obtained:
[1] = target: GAS1 ectodomain (GAS1-Ecto), FLAG-HaloTag7-tagged (human) (UniProt P54826); assay: ITC
[2] = target: Xenopus laevis PTCH1 (residues 1–1178) (Xenopus laevis); assay: native gel or EMSA

Sequence of UniProt P54826 (P54826 40-317): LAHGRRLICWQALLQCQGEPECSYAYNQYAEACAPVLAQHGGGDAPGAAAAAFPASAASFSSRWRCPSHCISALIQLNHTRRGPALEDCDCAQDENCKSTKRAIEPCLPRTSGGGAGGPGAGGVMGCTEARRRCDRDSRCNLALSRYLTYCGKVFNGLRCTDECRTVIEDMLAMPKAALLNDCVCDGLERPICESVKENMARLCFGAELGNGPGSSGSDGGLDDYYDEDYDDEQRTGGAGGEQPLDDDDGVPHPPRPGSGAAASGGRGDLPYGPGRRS

Molecule: palmitoylated SHH effector peptide (EP, SHH residues 24–45)
Kd [1]: 3.84 µM

B1: truncated, palmitoylated SHH EP (9aa, residues 24–32) (peptide)
peptide: Palmitoyl-SGPGRGFGK
Kd [1]: 3.72 µM

Next, values leading:

Kd [1]: 34.6 µM
Molecule: octanoylated SHH effector peptide (EP)

percent of SHH transferred from GAS1 to an equimolar amount of PTCH1 [2]: > 50%
Molecule: dually lipidated Sonic hedgehog (SHH) (from UniProt Q15465 24-197) (ligand)
